Assays:
[1] = target: GST-Cdc42Hs preloaded with GDP, P60953
[2] = target: GST-Cdc42Hs preloaded with GTPγS, P60953
[3] = target: GST-Rac1 preloaded with GTPγS, P63000
[4] = target: GST-RhoA preloaded with GTPγS, P61586
Sequence of GST-RhoA preloaded with GTPγS, P61586 (P61586 whole entry): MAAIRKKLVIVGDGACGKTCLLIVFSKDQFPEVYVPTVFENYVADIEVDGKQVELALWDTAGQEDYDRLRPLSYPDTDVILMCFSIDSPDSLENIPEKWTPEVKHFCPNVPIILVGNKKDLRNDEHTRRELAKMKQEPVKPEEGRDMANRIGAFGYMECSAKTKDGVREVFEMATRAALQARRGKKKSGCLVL

Sequence of GST-Cdc42Hs preloaded with GDP, P60953 (P60953 whole entry, looked up): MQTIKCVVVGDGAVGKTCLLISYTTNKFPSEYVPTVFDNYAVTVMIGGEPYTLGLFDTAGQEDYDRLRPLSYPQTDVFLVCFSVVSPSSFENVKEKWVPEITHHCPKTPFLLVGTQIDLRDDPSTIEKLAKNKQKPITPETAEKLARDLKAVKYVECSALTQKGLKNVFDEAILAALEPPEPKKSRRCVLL
Sequence of GST-Cdc42Hs preloaded with GTPγS, P60953 (P60953 whole entry, looked up): as above

B1: inactive PAK I holoenzyme (p60) purified from rabbit reticulocytes (protein)
chain: SDNGELEDKPPAPPVRMSSTIFSTGGKDPLSANHSLKPLPSVPEEKKPRNKIISIFSGTEKGSKKKEKERPEISPPSDFEHTIHVGFDAVTGEFTGMPEQWARLLQTSNITKLEQKKNPQAVLDVLKFYDSNTVKQKYLSFTPPEKDGFPSGAPALNTKVSETSAVVTEEDDDDEEAAPPVIAPRPDHTKSIYTRSVIDPIPAPVGDSHVDSGAKSSDKQKKKTKMTDEEIMEKLRTIVSIGDPKKKYTRYEKIGQGASGTVFTATDVALGQEVAIKQINLQKQPKKELIINEILVMKELKNPNIVNFLDSYLVGDELFVVMEYLAGGSLTDVVTETCMDEAQIAAVCRECLQALEFLHANQVIHRDIKSDNVLLGMEGSVKLTDFGFCAQITPEQSKRSTMVGTPYWMAPEVVTRKAYGPKVDIWSLGIMAIEMVEGEPPYLNENPLRALYLIATNGTPELQNPEKLSPIFRDFLNRCLEMDVEKRGSAKELLQHPFLKLAKPLSSLTPLIMAAKEAMKSNR
Q: B1 was tested. Which “activity (phosphorylation of H4)” value [1] did it give?
A: Its value is 2,154 pmol/min/mg.

Q: What about the “autophosphorylation and H4 activity relative to Cdc42Hs(GTPγS)” value [1] of the same protein?
A: The value was “approximately 8-fold lower than those observed with Cdc42Hs(GTPγS)”.

Q: What about the stimulation of autophosphorylation [1] of the same protein?
A: The stimulation of autophosphorylation was 0.12 mol/mol.

Q: And the “autophosphorylation of PAK I (autoradiography, time course)” value [2]?
A: The value was “Stimulation of autophosphorylation upon addition of GST-Cdc42Hs was observed within 5 min”.

Q: And the “increased autophosphorylation of PAK I” value [2]?
A: The value was 0.97 mol/mol.

Q: What about the “stimulation of the rate of phosphorylation of H4” value [2] of the same protein?
A: Its value is 18,261 pmol/min/mg.

Q: And the “autophosphorylation of PAK I (autoradiography, time course)” value [3]?
A: The value was “a slight stimulation of autophosphorylation over the basal level was observed over a 15-min period of incubation”.

Q: What about the “autophosphorylation and activity (phosphorylation of H4)” value [4] of the same protein?
A: The value was “had no stimulatory effect on either autophosphorylation or activity”.

Q: What about the “autophosphorylation of PAK I (autoradiography, time course)” value [4] of the same protein?
A: The value was “GST-RhoA had little effect”.
